One block for each binder: values may come before it.
Columns and labels:
[1] = molecular target: T1, HER3:Fc mutant F96L (human, UniProt P21860 20-643); test: HER3:Fc mutant ligand binding screen
T1 construct: extracellular domain

[2] = molecular target: T2, HER3:Fc mutant Y436L (human, UniProt P21860 20-643); test: HER3:Fc mutant ligand binding screen
T2 construct: extracellular domain

[3] = molecular target: T3, HER3:Fc mutant H565E (human, UniProt P21860 20-643); test: HER3:Fc mutant ligand binding screen
T3 construct: extracellular domain

[4] = molecular target: T4, HER3:Fc mutant A439D (human, UniProt P21860 20-643); test: HER3:Fc mutant ligand binding screen
T4 construct: extracellular domain

[5] = molecular target: T5, HER3:Fc mutant D343L (human, UniProt P21860 20-643); test: HER3:Fc mutant ligand binding screen
T5 construct: extracellular domain

[6] = molecular target: T6, HER3Y246A:Fc (human, UniProt P21860 20-643); test: HER3:Fc mutant ligand binding screen
T6 construct: extracellular domain; Screened as an Fc fusion homodimer in conditioned medium

[7] = molecular target: T7, HER3:Fc mutant D343H (human, UniProt P21860 20-643); test: HER3:Fc mutant ligand binding screen
T7 construct: extracellular domain

[8] = molecular target: T8, HER3:Fc mutant D343F (human, UniProt P21860 20-643); test: HER3:Fc mutant ligand binding screen
T8 construct: extracellular domain

[9] = molecular target: T9, HER3:Fc mutant L102S (human, UniProt P21860 20-643); test: HER3:Fc mutant ligand binding screen
T9 construct: extracellular domain

[10] = molecular target: T10, HER3:Fc mutant S438T (human, UniProt P21860 20-643); test: HER3:Fc mutant ligand binding screen
T10 construct: extracellular domain

[11] = molecular target: T11, HER3:Fc mutant L48Y (human, UniProt P21860 20-643); test: HER3:Fc mutant ligand binding screen
T11 construct: extracellular domain

[12] = molecular target: T12, HER3:Fc mutant D343I (human, UniProt P21860 20-643); test: HER3:Fc mutant ligand binding screen
T12 construct: extracellular domain

[13] = molecular target: T13, HER3:Fc mutant V19Q (human, UniProt P21860 20-643); test: HER3:Fc mutant ligand binding screen
T13 construct: extracellular domain

[14] = molecular target: T14, HER3:Fc mutant K415S (human, UniProt P21860 20-643); test: HER3:Fc mutant ligand binding screen
T14 construct: extracellular domain

[15] = molecular target: T15, HER3:Fc mutant G563Q (human, UniProt P21860 20-643); test: HER3:Fc mutant ligand binding screen
T15 construct: extracellular domain

[16] = molecular target: T16, HER3:Fc mutant D325N (human, UniProt P21860 20-643); test: HER3:Fc mutant ligand binding screen
T16 construct: extracellular domain

[17] = molecular target: T17, HER3:Fc mutant C481R (human, UniProt P21860 20-643); test: HER3:Fc mutant ligand binding screen
T17 construct: extracellular domain

[18] = molecular target: T18, HER3:Fc mutant S18T (human, UniProt P21860 20-643); test: HER3:Fc mutant ligand binding screen
T18 construct: extracellular domain

[19] = molecular target: T19, HER3:Fc mutant N103K (human, UniProt P21860 20-643); test: HER3:Fc mutant ligand binding screen
T19 construct: extracellular domain

[20] = molecular target: T20, RB200 (human, UniProt P00533 25-645; P21860 20-643); test: 125I-NRG1-β saturation binding, heterodimer immobilised on anti-Fc coated plate
T20 construct: extracellular domain; Purified over Ni-Sepharose, so a His tag is likely on one chain, but none is described; also called parent heterodimer RB200; EGFR/HER3 heterodimer

[21] = molecular target: T20, RB200; test: Eu-NRG1-β saturation binding (DELFIA), purified heterodimer immobilised on anti-human Fc plate
Experimental: (§1) Plates were incubated at RT for 2 hrs and then rinsed 3 times with DELFIA wash buffer. […] The plates were incubated at RT for 2 hrs followed by three quick rinse with ice-cold Delfia wash buffer containing0.02% Tween-20. To quantify bound Eu-ligands 130 μl/well of Delfia enhancement solution was added and the plates were read on a fluorescence plate reader (Envision, model 2100, PerkinElmer).

[22] = molecular target: T20, RB200; test: displacement of Eu-EGF from immobilised RB200 by unlabeled HB-EGF
Experimental: as §1

[23] = molecular target: T21, RB242 (human, UniProt P00533 25-645; P21860 20-643); test: displacement of Eu-EGF from immobilised RB242 by unlabeled HB-EGF
T21 construct: extracellular domain; purified to about 95% homogeneity; also called optimized hermodulin variant RB242
Experimental: as §1

- binding result [1]: no binding
- binding result [2]: no binding
- binding result [3]: no binding
- binding result [4]: no binding
- binding result [5]: no binding
- binding result [6]: binds
- binding result [7]: no binding
- binding result [8]: no binding
- binding result [9]: no binding
- binding result [10]: no binding
- binding result [11]: no binding
- binding result [12]: no binding
- binding result [13]: no binding
- binding result [14]: no binding
- binding result [15]: no binding
- binding result [16]: no binding
- binding result [17]: no binding
- binding result [18]: no binding
- binding result [19]: no binding
- Kd [20]: 12.3 nM
- Kd [21]: 3.1 nM
B1: NRG1-β (ligand, UniProt Q02297-6 177-241, looked up)
chain: SHLVKCAEKEKTFCVNGGECFMVKDLSNPSRYLCKCPNEFTGDRCQNYVMASFYKHLGIEFMEAE
notes: also called NRG1β1; NRGβ1

- Ki [22]: 20.1 nM
- Ki [23]: 1.3 nM
B2: HB-EGF (ligand, UniProt Q99075 63-148, looked up)
chain: DLQEADLDLLRVTLSSKPQALATPNKEEHGKRKKKGKGLGKKRDPCLRKYKDFCIHGECKYVKELRAPSCICHPGYHGERCHGLSL
